Source: PMC3107735
pKd: −log10 of the molar value.

Molecular target: bovine α-thrombin (bovine)
Assay: SPR

TMEGF56, fragment of thrombomodulin with the fifth and sixth EGF-like domains (domain or fragment)
pKd: 8.77
